{
  "source": "patent US20230391828A1",
  "about": "(TECHNISCHE UNIVERSIT T DRESDEN, published 2023)",
  "binders": {"B1": {"name": "G3-6Pra, Ac-cyclo(4,11)-EWPraZIKEIQRXRRA-NH2 (peptide)", "peptide": "Ac-EW[Pra][R8]IKEIQR[S5]RRA-NH2", "modifications": "staple 4-11; not fully specified (residue 3); printed as Ac-cyclo(4,11)-EWWZIKEIQRXRRA-NH2", "notes": "In the pull-down it was covalently attached to azide magnetic beads through Pra; also called ID; NO; 37"}},
  "key": {"Cullin 1": {"target": "T1, Cullin 1 (human (HeLa K cells), UniProt Q13616 1-776)", "T1 construct": "Detected by western blot after pull-down from HeLa K cell extract; also called Cullin 1, subunit of E3 ubiquitin ligases related to the APC/C", "T1 sequence (Q13616 whole entry)": "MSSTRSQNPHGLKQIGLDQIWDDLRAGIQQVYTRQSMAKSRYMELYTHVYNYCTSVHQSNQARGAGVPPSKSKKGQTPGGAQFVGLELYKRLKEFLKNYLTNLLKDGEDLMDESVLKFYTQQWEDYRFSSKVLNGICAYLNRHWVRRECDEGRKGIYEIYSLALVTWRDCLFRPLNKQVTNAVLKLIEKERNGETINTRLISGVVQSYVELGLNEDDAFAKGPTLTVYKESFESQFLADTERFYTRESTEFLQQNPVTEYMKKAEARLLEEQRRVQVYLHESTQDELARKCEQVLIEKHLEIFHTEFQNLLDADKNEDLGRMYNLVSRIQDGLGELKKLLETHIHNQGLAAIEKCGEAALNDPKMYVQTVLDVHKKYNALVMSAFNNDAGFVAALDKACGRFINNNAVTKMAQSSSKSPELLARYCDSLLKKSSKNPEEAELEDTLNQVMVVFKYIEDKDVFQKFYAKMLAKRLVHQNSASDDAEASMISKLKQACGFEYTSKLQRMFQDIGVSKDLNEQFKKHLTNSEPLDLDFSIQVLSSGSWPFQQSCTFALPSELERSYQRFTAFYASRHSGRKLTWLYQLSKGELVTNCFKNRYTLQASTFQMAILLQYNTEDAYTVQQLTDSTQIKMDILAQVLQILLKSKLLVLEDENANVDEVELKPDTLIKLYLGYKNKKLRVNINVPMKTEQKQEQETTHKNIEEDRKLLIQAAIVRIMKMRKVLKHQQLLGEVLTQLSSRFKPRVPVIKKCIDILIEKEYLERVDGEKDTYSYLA", "test": "pull-down from HeLa K cell extract with G3-6Pra on azide magnetic beads, western blot", "experimental": "(§1) As a control, G3-N4Pra negative control molecule was used. Western blot analysis was performed and indicated proteins were detected using near-infrared fluorescence imaging. GAPDH serves as a control for unspecific binding.\n(§2) In mean time, inhibitor molecules containing Propargyl (Pra) chemical group were covalently attached to the azide agarose or azide magnetic resin (Jena Bioscience) by Cu(I)-catalysed azide-alkyne cycloaddition reaction. […] The reaction was catalysed by 1 mM CuSO₄, 0.1 mM TBTA (Sigma-Aldrich) and 1 mM Sodium ascorbate and was performed on the rotating wheel for 30 min at room temperature in the volume of 1 ml. Subsequently, the resin was washed 5 times with the extraction buffer. The inhibitor-agarose resin was added to 1 mg of HeLa K cell extract and the inhibitor-magnetic resin was added to 0.5 mg of HeLa K cell extract followed by incubation at 4° C. for 2 h. Followed by washing the resin 5 times with the extraction buffer. Pull-down proteins were eluted by boiling for 15 min with 1×LDS sample buffer supplemented with 100 mM DTT (agarose resin) or by incubation with 1×LDS sample buffer for 10 min at room temperature followed by taking supernatant that was supplemented with 100 mM DTT and boiling it for 10 min. Samples were subjected to SDS PAGE and Western blot analysis."}, "RBX1": {"target": "T2, RBX1 (human (HeLa K cells), UniProt P62877 2-108)", "T2 construct": "Detected by western blot after pull-down from HeLa K cell extract", "T2 sequence (P62877 2-108 limits assumed)": "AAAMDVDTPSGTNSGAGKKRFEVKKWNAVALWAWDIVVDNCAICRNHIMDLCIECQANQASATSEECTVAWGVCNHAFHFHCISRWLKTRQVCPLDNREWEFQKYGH", "test": "pull-down from HeLa K cell extract with G3-6Pra on azide magnetic beads, western blot", "experimental": "as §1, §2"}},
  "note": "Bridge positions count the residues as written; N and C are the ends. Square brackets hold non-standard residues; d marks the D form. R8 = C=CCCCCCC[C@@](C)(N)C(=O)O; S5 = C=CCCC[C@](C)(N)C(=O)O; Pra = C#CC[C@H](N)C(=O)O",
  "data": [
    {"binder": "B1", "values": [
      {"measurement": "binding result", "setting": "Cullin 1", "value": "no binding"},
      {"measurement": "binding result", "setting": "RBX1", "value": "no binding"}
    ]}
  ]
}
